pKd: −log10 of the molar value.
Molecular target: Adnectin C-PAS#1(200)
Test: SPR; Biacore X100, 25 °C, HBS-EP buffer pH 7.4, CM5 chip; His-tagged Adnectins captured on amine-coupled anti-His antibody (about 300 RU); rhVEGFR2 injected at 50-3.125 ug/ml; multi cycle kinetics, contact 180 s, dissociation 500 s

pKd: 9.80
koff: 2.48e-05 s⁻¹
kon: 156000 M⁻¹ s⁻¹
Substance: rhVEGFR2 (Genescript) (from UniProt P35968 20-764) (receptor)

Reference: paper PMC6393559
